Biological target: T1, fetuin (UniProt P12763 19-359, carrying complex type and O-linked oligosaccharides)
T1 construct: Natural glycoprotein, separated by SDS-PAGE and blotted onto PVDF; also called fetuin carrying complex type and O-linked oligosaccharides
T1 sequence (looked up): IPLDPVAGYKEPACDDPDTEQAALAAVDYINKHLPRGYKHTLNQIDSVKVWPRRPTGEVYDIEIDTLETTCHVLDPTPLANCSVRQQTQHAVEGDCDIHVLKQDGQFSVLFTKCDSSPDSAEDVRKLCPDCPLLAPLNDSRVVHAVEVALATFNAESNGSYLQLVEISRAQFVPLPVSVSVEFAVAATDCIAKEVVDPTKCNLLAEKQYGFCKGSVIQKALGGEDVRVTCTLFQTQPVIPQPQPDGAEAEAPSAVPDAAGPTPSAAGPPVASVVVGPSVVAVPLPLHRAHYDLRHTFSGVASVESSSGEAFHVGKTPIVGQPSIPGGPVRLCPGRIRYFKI
Experiment: Western blot, 5 µg/lane on PVDF, phage detected with HRP-labeled anti-M13 antibody
Method: Fetuin, asialo-fetuin, RNase A, and RNase B (5 μg/lane) were separated by SDS-polyacrylamide gel electrophoresis (10% gel) and blotted onto a PVDF membrane. The SDS-PAGE gel was stained with Coomassie Brilliant Blue. The reactivity of phage antibody to natural glycoproteins was examined by Western blotting with M3-7 phage antibody followed by HRP-labeled anti-M13 phage antibody as described above.

B1: M3-7 phage antibody (scFv, V domains shown)
VH: QVQLQQSGPGLVKASETLSLTCAVSGYSISSGYYWGWIRQPPGKGLEWIGNIYHSGNTYYNPSLKSRVTISRDTSKNHFSLKLKSVTAADTAVYYCARADPGYMIFNWFDPWGQGTLVTVSS
VL: NFMLTQPPSASGTPGQRVTISCSGSSSNIGNNDVYWYQQFPGTAPKLLIYRNNQRPSGVPDRFSGSKSGTSASLAISGLRSEDEADYYCAAWDDSLIFGGGTKLTVLG
notes: also called Man3-specific scFv-displaying phage antibody
  binding result: no binding

— patent publication US20100324271A1 (TOKAI UNIVERSITY EDUCATIONAL SYSTEM, published 2010)
